Results published in doi:10.1101/2020.09.14.296129 (bioRxiv, 2020).

Biological target: calmodulin (calcium-loaded, holo-CaM) (UniProt P0DP23)
Assay: other fluorescence titration + ITC

## ASAHWGQRALQGAQAVAAAQRLVSAAALMTQ [P454 H477S-I479A peptide]
  fold decrease of affinity for CaM against P454: ~20 fold

## ASAHWGQRALQGAQAVAAAQRAVSAAALMTQ [P454 L475A-H477S-I479A peptide]
  fold decrease of affinity for CaM against P454: ~20 fold

## ASAHWGQEALQGAQAVAAAQELVHAIALMTQ [P454_(R12E) peptide (P454 with R461 and R474 substituted by glutamate)]
  Kd: 22.7 µM

## ASAHAGQRAAQGAQAVAAAQRLVHAIALMTQ [P454 W458A-L463A peptide]
  fold decrease of affinity for CaM against P454: 4 fold
